± gives the uncertainty stated by the source.
Test: self-splicing fitness, log relative to wild type (ln ratio); higher = more splicing; Tetrahymena group I intron in knt gene, E. coli kanamycin selection, DiMSum; sequences stand for … in CUCUCU…GGAGGGAAAAGUUAUCAGGCAUGCACCUGGUAGCUAGUCUUUAAACCAAUAGAUUGCAUCGGUUUAAAAGGCAAGACCGUCAAAUUGCGGGAAAGGGGUCAACAGCCGUUCAGUACCAAGUCUCAGGGGAAACUUUGAGAUGGCCUUGCAAAGGGUAUGGUAAUAAGCUGACGGACAUGGUCCUAACCACGCAGCCAAGUCCUAAGUCAACAGAUCUUCUGUUGAUAUGGAUGCAGUUCACAGACUAAAUGUCGGUCGGGGAAGAUGUAUUCUUCUCAUAAGAUAUAGUCGGACCUCUCCUUAAUGGGAGCUAGCGGAUGAAGUGAUGCAACACUGGAGCCGCUGGGAACUAAUUUGUAUGCGAAAGUAUAUUGAUUAGUUUUGGAGUACUCGUGGUCG
Procedure, shortened: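 Library with all eight P1ex-region intron nucleotides randomised, intron inside the knt kanamycin-resistance gene on pET-22b(+), in E. coli BL21(DE3). Cells grew overnight at 37°C or 30°C on LB agar with or without 25 μg/mL kanamycin (plus 100 μg/mL carbenicillin, 50 μM IPTG, 0.2% rhamnose), in six replicate transformations. Pooled colonies were amplicon-sequenced on Illumina HiSeq 2500. DiMSum fitness is the error-weighted combination of wild-type-normalised replicate fold changes, kanamycin versus none.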

| Sequence | self-splicing fitness (ln) (30 °C) | self-splicing fitness (ln) (37 °C) |
| --- | --- | --- |
| UGUGAGCAAUAUUACGGCGU | -3.33 ± 0.3 | -1.92 ± 0.32 |
| CAUAAGCAAUAUUACGGAAU | -4.25 ± 0.23 | -2.43 ± 0.18 |
| CGGCAGCAAUAUUACGAGAG | -3.21 ± 0.23 | -1.44 ± 0.2 |
| AAACAGCAAUAUUACGGCAA | -0.944 ± 0.096 | -0.612 ± 0.11 |
| UGGUAGCAAUAUUACGCGCC | -1.45 ± 0.3 | -2.02 ± 0.42 |
| ACCAAGCAAUAUUACGAUCA | -1.55 ± 0.086 | -1.22 ± 0.075 |
| CGGAAGCAAUAUUACGAGAA | -2.88 ± 0.48 | -2.03 ± 0.24 |
| CGUGAGCAAUAUUACGGUCC | -3.39 ± 0.24 | -1.69 ± 0.24 |
| GCCAAGCAAUAUUACGUGGU | -3.65 ± 0.13 | -3.27 ± 0.17 |
| GACCAGCAAUAUUACGAACU | 0.271 ± 0.062 | -0.0101 ± 0.082 |
| UAGCAGCAAUAUUACGUAUC | -3.16 ± 0.16 | -2.87 ± 0.25 |
| UAUCAGCAAUAUUACGCAUG | -1.1 ± 0.082 | 0.181 ± 0.099 |
| UUUCAGCAAUAUUACGGUCA | 0.101 ± 0.12 | 0.222 ± 0.13 |
| UCACAGCAAUAUUACGAGGU | -4.27 ± 0.36 | -2.54 ± 0.22 |
| UGUGAGCAAUAUUACGUUUU | -3.15 ± 0.27 | -2.98 ± 0.37 |
| UUAAAGCAAUAUUACGCAUA | -0.633 ± 0.072 | 0.164 ± 0.11 |
| CGACAGCAAUAUUACGAACU | -1.16 ± 0.13 | -0.845 ± 0.15 |
| AUUCAGCAAUAUUACGAACU | 0.334 ± 0.13 | 0.543 ± 0.14 |
| UACCAGCAAUAUUACGUAGG | -3.19 ± 0.2 | -2.74 ± 0.24 |
| GAGCAGCAAUAUUACGCCGA | -1.55 ± 0.17 | -0.726 ± 0.18 |
| UUAAAGCAAUAUUACGAGUG | -0.826 ± 0.058 | -0.0213 ± 0.08 |
| CACUAGCAAUAUUACGGUCC | -2.4 ± 0.12 | -1.29 ± 0.15 |
| UCCAAGCAAUAUUACGAUAU | -3.24 ± 0.19 | -2.57 ± 0.16 |

| Sequence | self-splicing fitness (ln) (30 °C) | self-splicing fitness (ln) (37 °C) |
| --- | --- | --- |
| CCAAAGCAAUAUUACGAGUC | -3.73 ± 0.2 | -2.04 ± 0.19 |
| UGUGAGCAAUAUUACGCAUU | -4.49 ± 0.29 | -1.77 ± 0.3 |
| GAAGAGCAAUAUUACGAGCU | -4.07 ± 0.21 | -1.61 ± 0.14 |
| CCUCAGCAAUAUUACGAGAA | -3.3 ± 0.41 | -2.28 ± 0.29 |
| ACAUAGCAAUAUUACGUGGC | -3.8 ± 0.23 | -3.09 ± 0.27 |
| CUCCAGCAAUAUUACGCAGG | -3.95 ± 0.21 | -2.83 ± 0.27 |
| UCCCAGCAAUAUUACGUCGC | -3.47 ± 0.27 | -2.4 ± 0.22 |
| AAGCAGCAAUAUUACGACAU | -0.341 ± 0.011 | -0.0663 ± 0.032 |
| GGUGAGCAAUAUUACGGGGU | -3.31 ± 0.17 | -2.94 ± 0.26 |
| GAGAAGCAAUAUUACGCUGA | -1.49 ± 0.17 | -1.29 ± 0.15 |
| AGUUAGCAAUAUUACGUGUU | -3.25 ± 0.15 | -1.52 ± 0.14 |
| UCACAGCAAUAUUACGCAGC | -3.29 ± 0.2 | -2.62 ± 0.25 |
| CAAGAGCAAUAUUACGCCAA | -3.78 ± 0.4 | -2.68 ± 0.3 |
| CCGAAGCAAUAUUACGGUAG | -2.87 ± 0.11 | -1.3 ± 0.095 |
| GCCCAGCAAUAUUACGUUUG | -3.95 ± 0.14 | -1.84 ± 0.14 |
| ACCCAGCAAUAUUACGGUGU | -2.69 ± 0.076 | -1.64 ± 0.11 |
| AACCAGCAAUAUUACGUGGA | -2.33 ± 0.093 | -1.13 ± 0.08 |
| CUUAAGCAAUAUUACGUGUA | -3.17 ± 0.14 | -2.64 ± 0.17 |
| AAGAAGCAAUAUUACGAGAC | -4.15 ± 0.29 | -2.85 ± 0.25 |
| CGGCAGCAAUAUUACGUGUU | -3.41 ± 0.13 | -1.95 ± 0.13 |
| CUUGAGCAAUAUUACGCCAA | -3.52 ± 0.25 | -2.09 ± 0.32 |
| AGCUAGCAAUAUUACGCAAG | -4.11 ± 0.47 | -2.93 ± 0.3 |
| UACUAGCAAUAUUACGGAAU | -4.58 ± 0.39 | -2.95 ± 0.23 |
